Data published in paper PMC6511868.

Columns and labels:
uS3-GFP (S. cerevisiae) = uS3-GFP (S. cerevisiae) (UniProt P05750); assay: co-IP; yeast lysates; GFP-Trap_A beads (GFP-tagged baits) or IgG-Sepharose (TAP-tagged baits), 3 h at 4°C, western blot; wild type and the strains sup45-2, rat8-2, rat7ΔN shifted to 37°C for 1 h; also 0.5 mg/ml cycloheximide for 30 min; also high copy RLI1
[1] = target: uL23 as bait of the co-IP of Figure 1C (tag not told) (UniProt P04456); assay: co-immunoprecipitation, western blot quantification; settings: parent: 100
Chain of UniProt P04456 (P04456 whole entry): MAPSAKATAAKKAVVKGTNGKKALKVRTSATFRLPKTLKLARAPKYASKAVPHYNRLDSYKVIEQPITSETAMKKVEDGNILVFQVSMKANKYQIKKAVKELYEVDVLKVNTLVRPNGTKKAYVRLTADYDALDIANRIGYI

Chain of UniProt P05750 (P05750 whole entry): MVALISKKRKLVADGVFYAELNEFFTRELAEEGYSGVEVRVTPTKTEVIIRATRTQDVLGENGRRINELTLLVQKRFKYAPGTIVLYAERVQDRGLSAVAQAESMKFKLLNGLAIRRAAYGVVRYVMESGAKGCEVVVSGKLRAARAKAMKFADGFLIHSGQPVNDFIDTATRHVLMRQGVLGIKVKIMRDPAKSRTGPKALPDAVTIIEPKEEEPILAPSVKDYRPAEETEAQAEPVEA

co-precipitation relative to wild-type eRF1 (uS3-GFP (S. cerevisiae))	co-precipitation relative to wild-type eRF1, with high copy RLI1 (uS3-GFP (S. cerevisiae)) [%]	percent of parent [1] [%]	Substance
0.25 of wild type	> 60		mutated eRF1 protein sup45-2 (from UniProt P12385 1-437) (natural protein)
		46	eukaryotic release factor 1 (eRF1) (from UniProt P12385) sup45-2
